{"source": "patent US20050037339A1", "key": {"[1]": {"biological_target": "ErbB2 on cells (SKBR3 high, SK-OV-3 moderate, MCF7 low expression) (human) (UniProt P04626)", "test": "cell-based or functional assay"}, "[2]": {"biological_target": "ErbB2 on cells (SKBR3 high, SK-OV-3 moderate, MCF7 low expression) (human) (UniProt P04626)", "test": "3.0×10^11 cfu on SKBR3 cells 2 h at 37 °C, stripping buffer wash titered on E. coli TG1"}, "[3]": {"biological_target": "ErbB2 on cells (SKBR3 high, SK-OV-3 moderate, MCF7 low expression) (human) (UniProt P04626)"}, "[4]": {"biological_target": "ErbB2 on cells (SKBR3 high, SK-OV-3 moderate, MCF7 low expression) (human) (UniProt P04626)", "remark": "listed apart in the source"}, "[5]": {"biological_target": "ErbB2 on cells (SKBR3 high, SK-OV-3 moderate, MCF7 low expression) (human) (UniProt P04626)", "test": "5.0×10^11 phage on ErbB2 expressing SKBR3 cells at 37 °C, low pH glycine eluate titered on E. coli TG1"}, "[6]": {"biological_target": "recombinant ErbB2 extracellular domain (UniProt P04626)", "test": "SPR (BIAcore)"}, "[7]": {"biological_target": "ErbB2 on cells (SKBR3 high, SK-OV-3 moderate, MCF7 low expression) (human) (UniProt P04626)", "test": "FACS on SKBR3 cells, anti-M13 and streptavidin-PE detection"}}, "note": "Like-named read-outs stand apart in the source and are kept apart here."}
{"substance": "C6.5 scFv phage (fd) (from UniProt P03661 19-424)", "values": [{"measurement": "Intracellular Phage Titer", "setting": "[1]", "value": "2.2e+08", "unit": "cfu"}, {"measurement": "input titer below which phage could not be recovered from within SKBR3 cells (input phage titer)", "setting": "[1]", "value": 30000}, {"measurement": "Cell Surface Phage Titer, 1st Wash", "setting": "[2]", "value": "2.3e+08", "unit": "cfu"}, {"measurement": "Cell Surface Phage Titer, 2nd Wash", "setting": "[2]", "value": "6.2e+07", "unit": "cfu"}, {"measurement": "Cell Surface Phage Titer, 3rd Wash", "setting": "[2]", "value": "5.6e+06", "unit": "cfu"}]}
{"substance": "C6ML3-9 scFv phagemid (from UniProt P69168 19-424)", "values": [{"measurement": "Intracellular Phage Titer", "setting": "[1]", "value": "2.7e+07", "unit": "cfu"}, {"measurement": "input titer below which phagemid could not be recovered from within SKBR3 cells (input phage titer)", "setting": "[1]", "value": "3e+06"}, {"measurement": "Cell Surface Phage Titer, 1st Wash", "setting": "[2]", "value": "2.5e+08", "unit": "cfu"}, {"measurement": "Cell Surface Phage Titer, 2nd Wash", "setting": "[2]", "value": "1.4e+07", "unit": "cfu"}, {"measurement": "Cell Surface Phage Titer, 3rd Wash", "setting": "[2]", "value": "3.2e+06", "unit": "cfu"}]}
{"substance": "anti-botulinum scFv phagemid (clone 3D12) (from UniProt P69168 19-424)", "values": [{"measurement": "titer of cell surface bound phage, 1st glycine wash", "setting": "[3]", "value": 600000, "unit": "phage titer"}, {"measurement": "titer of cell surface bound phage, 2nd glycine wash", "setting": "[3]", "value": 100000, "unit": "phage titer"}, {"measurement": "Cell Surface Phage Titer, 1st Wash", "setting": "[4]", "value": "2.8e+07", "unit": "cfu"}, {"measurement": "Cell Surface Phage Titer, 2nd Wash", "setting": "[4]", "value": "3.6e+06", "unit": "cfu"}, {"measurement": "Cell Surface Phage Titer, 3rd Wash", "setting": "[4]", "value": 280000, "unit": "cfu"}, {"measurement": "Intracellular Phage Titer", "setting": "[1]", "value": "1.5e+06", "unit": "cfu"}, {"measurement": "Lysed cell fraction (titer of internalized phage)", "setting": "[1]", "value": 600000, "unit": "phage titer"}]}
{"substance": "C6.5 phage (Example 2) (scFv)", "values": [{"measurement": "Lysed cell fraction (titer of internalized phage)", "setting": "[1]", "value": "6.8e+07", "unit": "phage titer"}, {"measurement": "titer of cell surface bound phage, 1st glycine wash", "setting": "[5]", "value": "1.2e+07", "unit": "phage titer"}, {"measurement": "titer of cell surface bound phage, 2nd glycine wash", "setting": "[5]", "value": "5.2e+06", "unit": "phage titer"}]}
{"substance": "native anti-ErbB2 F5 scFv", "values": [{"measurement": "Kd", "setting": "[6]", "value": 160, "unit": "nM"}]}
{"substance": "F5-phagemid (monovalent) (from UniProt P69168 19-424) (scFv)", "values": [{"measurement": "% of GFP positive cells (SKBR3, 48 hours; 0.78 µg reporter plasmid DNA)", "setting": "[1]", "value": 0.64, "unit": "%"}, {"measurement": "% of GFP positive cells (SKBR3, 48 hours; 3.1 µg reporter plasmid DNA)", "setting": "[1]", "value": 1.44, "unit": "%"}, {"measurement": "% of GFP positive cells (SKBR3, 48 hours; 15 µg reporter plasmid DNA)", "setting": "[1]", "value": 3.84, "unit": "%"}, {"measurement": "GFP expressing SKBR3 cells after 48 hrs (FACS)", "setting": "[1]", "value": 1.37, "unit": "%"}, {"measurement": "GFP expressing SKBR3 cells in a co-culture of SKBR3 and MCF7 cells (FACS)", "setting": "[1]", "value": 1.91, "unit": "%"}, {"measurement": "GFP positive SKBR3 cells at the minimal phage concentration", "setting": "[1]", "value": 0.12, "unit": "%"}, {"measurement": "maximum percentage of GFP positive SKBR3 cells in the time course", "setting": "[1]", "value": 4.5, "unit": "%"}, {"measurement": "lowest phage concentration at which binding could be detected", "setting": "[7]", "value": "1e+10", "unit": "cfu/ml"}]}
{"substance": "C6.5 scFv phagemid (from UniProt P69168 19-424)", "values": [{"measurement": "Intracellular Phage Titer", "setting": "[1]", "value": "5.2e+06", "unit": "cfu"}, {"measurement": "enrichment of C6.5 scFv phagemid over wild type fd phage in the cell lysate, with trypsinization", "setting": "[1]", "value": 209, "unit": "fold"}, {"measurement": "enrichment of C6.5 scFv phagemid over wild type fd phage in the cell lysate, without trypsinization", "setting": "[1]", "value": 6.1, "unit": "fold"}, {"measurement": "input titer below which phagemid could not be recovered from within SKBR3 cells (input phage titer)", "setting": "[1]", "value": 300000}, {"measurement": "Cell Surface Phage Titer, 1st Wash", "setting": "[2]", "value": "6e+07", "unit": "cfu"}, {"measurement": "Cell Surface Phage Titer, 2nd Wash", "setting": "[2]", "value": "9.6e+06", "unit": "cfu"}, {"measurement": "Cell Surface Phage Titer, 3rd Wash", "setting": "[2]", "value": 760000, "unit": "cfu"}]}
{"substance": "C6.5 diabody phagemid (from UniProt P69168 19-424)", "values": [{"measurement": "Intracellular Phage Titer", "setting": "[1]", "value": "4.5e+07", "unit": "cfu"}, {"measurement": "Lysed cell fraction (titer of internalized phage)", "setting": "[1]", "value": "1.7e+07", "unit": "phage titer"}, {"measurement": "cells with internalized phage (confocal microscopy, SKBR3 cells)", "setting": "[1]", "value": 20, "unit": "%"}, {"measurement": "input titer below which phage could not be recovered from within SKBR3 cells (input phage titer)", "setting": "[1]", "value": 30000}, {"measurement": "Cell Surface Phage Titer, 1st Wash", "setting": "[2]", "value": "1.8e+08", "unit": "cfu"}, {"measurement": "Cell Surface Phage Titer, 2nd Wash", "setting": "[2]", "value": "1.2e+07", "unit": "cfu"}, {"measurement": "Cell Surface Phage Titer, 3rd Wash", "setting": "[2]", "value": "1.3e+06", "unit": "cfu"}, {"measurement": "titer of cell surface bound phage, 1st glycine wash", "setting": "[5]", "value": "1.8e+07", "unit": "phage titer"}, {"measurement": "titer of cell surface bound phage, 2nd glycine wash", "setting": "[5]", "value": "2.8e+06", "unit": "phage titer"}]}
{"substance": "fd-F5 phage (multivalent) (from UniProt P03661 19-424) (scFv)", "values": [{"measurement": "% of GFP positive cells (SKBR3, 48 hours; 1.25 ng reporter plasmid DNA)", "setting": "[1]", "value": 0.57, "unit": "%"}, {"measurement": "% of GFP positive cells (SKBR3, 48 hours; 2.25 ng reporter plasmid DNA)", "setting": "[1]", "value": 0.87, "unit": "%"}, {"measurement": "% of GFP positive cells (SKBR3, 48 hours; 5 ng reporter plasmid DNA)", "setting": "[1]", "value": 1.69, "unit": "%"}, {"measurement": "lowest phage concentration at which binding could be detected", "setting": "[7]", "value": "1e+08", "unit": "cfu/ml"}]}
{"substance": "C6.5cys scFv conjugated to liposomes", "values": [{"measurement": "Total uptake of scFv-conjugated liposomes by SKBR3 cells", "setting": "[1]", "value": 3.4}, {"measurement": "share of the liposome uptake that was internalized (SKBR3 cells)", "setting": "[1]", "value": 70, "unit": "%"}]}
